Two substances from patent publication US12091399B2, “Phenyltetrazole derivatives as plasma kallikrein inhibitors” (Boehringer Ingelheim International GmbH, priority 2018, dated 2024) can be followed below.

Series [1] concerns Cc1cc(=O)oc2cc(NC(=O)[C@H](CCCNC(=N)N)NC(=O)[C@H](C)NC(=O)[C@H](CCC(=O)OCc3ccccc3)NC(=O)OC(C)(C)C)ccc12. The experiment in a line: Inhibition of FXIa (Ki). In kind it is biochemical, human. The settings on record: other: substrate KM, enzyme FXIa; pH 7.8; 24.0 °C. The protocol: (§1) The ability of compounds of formula (I) to inhibit plasma kallikrein (PKK), Factor XIIa (FXIIa), Factor XIa (FXIa), Factor Xa (FXa), Factor IIa (alpha-thrombin; FIIa), plasmin, trypsin, tissue kallikrein 1 (TK1), Factor Vila (FVIIa), or FVIIa complexed with Tissue Factor, phospholipids and CaCl2) (FVIIa/TF/PL/CaCl2) was determined using the following biochemical assays in assay buffer (100 mM Tris, 150 mM NaCL, adjusted to a pH of 7.8 with HCl, and containing 0.1% (w/v) BSA and 0.05% (v/v) Tween20) in the presence of 1% (v/v) DMSO:
Human FXIa (0.5 nM or 0.016 U/mL; Enzyme Research Laboratories) was incubated at 24° C. with 0.25 mM fluorogenic substrate Boc-Glu(OBzl)-Ala-Arg-AMC.HCl (11575 from Bachem) and various concentrations of the test compound in assay buffer. Measurements were performed in a kinetic interval every 2nd minute for 16 min using a Spectramax M5 (Molecular Devices) with the following settings of the wavelength excitation of 350 nm and wavelength emission of 450 nm.
The pIC50 values were then fitted using a four-parametric fitting procedure using GraphPad Prism (version 6; GraphPad Software, Inc.). Respective Ki values were obtained by correction of the IC50 values for the respective KM value of the used substrate (see Table A for the obtained KM values of the used substrates) using the following formula: […]

Series [2] concerns Cc1cc(=O)oc2cc(NC(=O)[C@H](CCCNC(=N)N)NC(=O)[C@H](Cc3ccccc3)NC(=O)[C@@H]3CCCN3)ccc12. Briefly: Inhibition of PKK (Ki), kinetic assay. Format: biochemical, human. The settings on record: other: substrate KM, enzyme PKK; pH 7.8; 24.0 °C. The method, then: as §1
Human PKK (1.78 nM or 0.025 U/mL; Enzyme Research Laboratories) was incubated at 24° C. with 0.25 mM fluorogenic substrate H-Pro-Phe-Arg-AMC (11295 from Bachem) and various concentrations of the test compound in assay buffer. Measurements were performed in a kinetic interval every 2nd minute for 16 min using a Spectramax M5 (Molecular Devices) with the following settings of the wavelength excitation of 350 nm and wavelength emission of 450 nm. The number of the compound corresponds to the number of the Example in the experimental section.
The pIC50 values were then fitted using a four-parametric fitting procedure using GraphPad Prism (version 6; GraphPad Software, Inc.). […]

Chain of Human PKK (Homo sapiens) (chain, as listed by the source): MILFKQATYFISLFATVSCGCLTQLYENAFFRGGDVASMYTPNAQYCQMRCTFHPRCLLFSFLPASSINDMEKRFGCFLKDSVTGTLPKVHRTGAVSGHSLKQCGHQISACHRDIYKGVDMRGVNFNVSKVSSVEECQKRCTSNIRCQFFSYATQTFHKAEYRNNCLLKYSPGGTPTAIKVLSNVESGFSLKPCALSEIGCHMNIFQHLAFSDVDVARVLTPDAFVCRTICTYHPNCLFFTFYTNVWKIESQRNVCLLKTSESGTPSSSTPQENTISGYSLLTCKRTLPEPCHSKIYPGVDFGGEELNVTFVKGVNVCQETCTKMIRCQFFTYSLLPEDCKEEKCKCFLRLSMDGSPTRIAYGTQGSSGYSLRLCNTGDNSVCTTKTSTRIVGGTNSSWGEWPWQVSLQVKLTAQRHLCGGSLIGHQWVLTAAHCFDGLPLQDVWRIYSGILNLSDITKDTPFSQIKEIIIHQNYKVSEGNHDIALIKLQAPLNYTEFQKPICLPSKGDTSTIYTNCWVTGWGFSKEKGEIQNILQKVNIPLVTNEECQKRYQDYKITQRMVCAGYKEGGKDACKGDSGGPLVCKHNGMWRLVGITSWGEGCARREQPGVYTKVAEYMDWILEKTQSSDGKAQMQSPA

On to Human FXIa (Homo sapiens), for which the Km in series [1] was found to be 290 µM.
Human PKK (Homo sapiens): the Km in series [2] stood at 160 µM.
